Experimental data: patent US20100240774A1, “USE OF HYDROPHOBIN POLYPEPTIDES AS PENETRATION ENHANCERS” (BASF SE, priority 2007, published 2010)

Experiments:
[1] = system: NHDF (normal human dermal fibroblast) cultures; experiment: antioxidative capacity (DCFH fluorescence after H2O2 stress) in NHDF cultures; assay type: cell-based; details: 24 h treatment, H2O2-induced radicals, protein concentration 0.001%, three independent runs, effect seen in two of three runs
Source text: The reference substances used were vitamin E (alpha-tocopheryl acetate), vitamin C (Mg ascorbyl phosphate) and quercetin. The test cells used were normal dermal connective tissue cells (fibroblasts) since these produced good signal strengths in the evaluation method. To ascertain the antioxidative properties of the solutions, the NHDF (normal human dermal fibroblast) cultures were sown out on 48-well culture vessels and cultivated until the culture surface was completely covered. The investigations were then carried out with these random cultures. Firstly, the cultures were treated for 24 h with the test solutions. […] The plates containing the cells were inserted into a fluorescence reader and the measurement was started with an introductory phase without stress. […] Low fluorescence thus indicates high antioxidative capacity. […] The y axis here represents the oxidative stress in the cells as the fluorescence which is emitted when free radicals react with the intracellular dye DCFH. […] All fluorescence values were corrected with the protein contents of the cultures following conclusion of the measurements (ascertained with Coomassie stain). This compensates for fluctuations in the cell number, which would also cause fluctuations in the fluorescence (on account of the varying amount of dye). […]

[2] = skin penetration of lactic acid: pH of pigskin after tape stripping; assay type: in vitro ADME, pig; details: for pH of the skin in the lower skin layers (after stripping) versus control without hydrophobin: hydrophobin coating and subsequent lactic acid treatment; for pH 1x stripping / pH 2x stripping / pH 3x stripping / pH without stripping: pigskin pretreated with 100 μl 0.1% hydrophobin 1.5 hours, then 15% strength lactic acid 10 minutes; for pH 1x stripping: after 1 Corneofix strip; for pH 2x stripping: after 2 Corneofix strips; for pH 3x stripping: after 3 Corneofix strips; for pH without stripping: mean of triple measurements
Method: • 1. Preparation of a 1% strength solution of hydrophobin A and B in Millipore water Dissolution of the hydrophobin by vigorous stirring on a magnetic stirrer at 900 rpm for 45 minutes. • 2. Preparation of 1 ml of a ready-to-use hydrophobin solution: • 800 μl Millipore water +100 μl 10-fold buffer (500 mM Tris, 10 mM CaCl2, pH 8) +100 μl hydrophobin solution
This corresponds to a 0.1% strength hydrophobin solution in 50 mM Tris 1 mM CaCl2 and pH 8
• 1. Frozen and dehaired pigskin (not blanched) was defrosted at room temperature. Marking of the application fields measuring ca. 2 cm×2 cm Application of the following solutions (stripping): • control (without solution)
• 2. Incubation of the solutions for 1.5 hours at RT
In order to remove any buffer salts present, all of the application fields were rinsed with 2×500 μl of Millipore water and dabbed with a paper towel. • 3. Application of in each case 100 μl of 15% strength lactic acid to all application fields
Incubation of the solutions for 10 minutes at room temperature
Removal of the excess lactic acid using a paper towel
Measurement of the pH of the pigskin on the respective application fields. Triple measurements were carried out and the mean was used. The water present after a pH measurement was dabbed off using a paper towel. A skin pH meter PH 905 from Courage & Khazaka was used.
Removal of the uppermost loose cell layer using a Corneofix adhesive strip from Courage & Khazaka
Renewed measurement of the pH
Overall, a Corneofix adhesive strip was used 3 times and the pH measured thereafter.

**Q.** For `CC(=O)Oc1c(C)c(C)c2c(c1C)CCC(C)(CCC[C@H](C)CCC[C@H](C)CCCC(C)C)O2` (stereo partly drawn) [Tocopheryl acetate, alpha-tocopheryl acetate], which “oxidative stress / antioxidative potential (DCFH fluorescence)” value [1] is on record?
**A.** no antioxidative potential

B1: hydrophobin B: fusion hydrophobin, SEQ ID NO: 26 from WO2007/14897; SEQ ID NO: 36 herein (yaad40-Xa-dewA-his) (protein)
chain: MAQTGTERVKRGMAEMQKGGVIMDVINAEQAKIAEEAGAVIEGRMRFIVSLLAFTAAATATALPASAAKNAKLATSAAFAKQAEGTTCNVGSIACCNSPAETNNDSLLSGLLGAGLLNGLSGNTGSACAKASLIDQLGLLALVDHTEEGPVCKNIVACCPEGTTNCVAVDNAGAGTKAEGSHHHHHH
modifications: fusion protein yaad40-Xa-dewA-his
**Q.** Which results are given for B1?
**A.** pH of the skin in the lower skin layers (after stripping) versus control without hydrophobin [2]: lower pH; pH 1x stripping [2]: 2.89; pH 2x stripping [2]: 3.08; pH 3x stripping [2]: 3.26; pH without stripping [2]: 2.64

B2: hydrophobin A: fusion hydrophobin, SEQ ID NO: 20 from WO2007/14897 and herein (yaad-Xa-dewA-his) (protein)
chain: MAQTGTERVKRGMAEMQKGGVIMDVINAEQAKIAEEAGAVAVMALERVPADIRAAGGVARMADPTIVEEVMNAVSIPVMAKARIGHIVEARVLEAMGVDYIDESEVLTPADEEFHLNKNEYTVPFVCGCRDLGEATRRIAEGASMLRTKGEPGTGNIVEAVRHMRKVNAQVRKVVAMSEDELMTEAKNLGAPYELLLQIKKDGKLPVVNFAAGGVATPADAALMMQLGADGVFVGSGIFKSDNPAKFAKAIVEATTHFTDYKLIAELSKELGTAMKGIEISNLLPEQRMQERGWRSIEGRMRFIVSLLAFTAAATATALPASAAKNAKLATSAAFAKQAEGTTCNVGSIACCNSPAETNNDSLLSGLLGAGLLNGLSGNTGSACAKASLIDQLGLLALVDHTEEGPVCKNIVACCPEGTTNCVAVDNAGAGTKAEGSHHHHHH
modifications: basf-yaad-Xa-dewA-his fusion of Bacillus subtilis yaaD and N-terminal factor Xa proteinase cleavage site and Aspergillus nidulans hydrophobin dewA and his6
**Q.** What does the source list for B2?
**A.** pH of the skin in the lower skin layers (after stripping) versus control without hydrophobin [2]: lower pH; pH 1x stripping [2]: 3.08; pH 2x stripping [2]: 3.39; pH 3x stripping [2]: 3.63; pH without stripping [2]: 2.62
